Test results reported in publication PMC10786891, “Massively parallel profiling of RNA-targeting CRISPR-Cas13d”.
Positions count from the first letter of the chain named. Names may count otherwise.

T1: EsCas13d, nuclease-dead (Eubacterium siraeum, UniProt B0MS50, R295A;H300A;R849A;H854A)
T1 sequence: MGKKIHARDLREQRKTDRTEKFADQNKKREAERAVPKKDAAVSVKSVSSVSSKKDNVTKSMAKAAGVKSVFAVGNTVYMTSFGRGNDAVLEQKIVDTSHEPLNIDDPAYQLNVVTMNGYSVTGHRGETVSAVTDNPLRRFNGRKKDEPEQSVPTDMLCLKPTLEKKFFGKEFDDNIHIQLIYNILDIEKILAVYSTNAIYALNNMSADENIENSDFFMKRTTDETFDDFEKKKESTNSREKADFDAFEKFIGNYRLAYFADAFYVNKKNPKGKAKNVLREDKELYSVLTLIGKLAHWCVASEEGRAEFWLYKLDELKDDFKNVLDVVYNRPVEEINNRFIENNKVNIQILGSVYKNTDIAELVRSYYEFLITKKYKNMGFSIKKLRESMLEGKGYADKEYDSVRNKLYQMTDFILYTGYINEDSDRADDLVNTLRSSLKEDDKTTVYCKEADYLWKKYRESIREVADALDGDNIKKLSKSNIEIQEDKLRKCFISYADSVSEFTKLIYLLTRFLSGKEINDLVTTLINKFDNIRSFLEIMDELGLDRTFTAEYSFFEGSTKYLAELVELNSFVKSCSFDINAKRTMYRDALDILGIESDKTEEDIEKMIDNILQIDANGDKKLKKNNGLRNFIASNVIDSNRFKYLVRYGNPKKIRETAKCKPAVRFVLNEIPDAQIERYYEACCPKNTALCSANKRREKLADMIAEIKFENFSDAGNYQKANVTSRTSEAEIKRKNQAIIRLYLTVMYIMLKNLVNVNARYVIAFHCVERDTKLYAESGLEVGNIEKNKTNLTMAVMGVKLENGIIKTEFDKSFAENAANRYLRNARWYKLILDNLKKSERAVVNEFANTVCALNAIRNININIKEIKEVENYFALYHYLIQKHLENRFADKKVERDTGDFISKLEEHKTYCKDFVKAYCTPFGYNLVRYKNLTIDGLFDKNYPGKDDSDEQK

B1: target 1 insA 3' of 11,insG 3' of 11 (mixed)
RNA 1: CACCCGUGCAAAAAUGCAGGGGUCUAAAACUGAGCGGAUAACCUCUCUAUGG
RNA 2: GGGAAUGGAUCCACAUCUACGAAUUCGUACCAUAGAGAGGUAGUAUCCGCUCACCGAGAUCGGAAGAGCACACGU
B2: target 1 G12A,G15A (mixed)
RNA 1: B1 RNA 1
RNA 2: GGGAAUGGAUCCACAUCUACGAAUUCGUACCAUAGAAAGAUUAUCCGCUCACCGAGAUCGGAAGAGCACACGU
B3: target 1 C4A,U8G (mixed)
RNA 1: B1 RNA 1
RNA 2: B2 RNA 2 with A37G, A40G, U44G, C48A
B4: target 1 U8A,A14G (mixed)
RNA 1: B1 RNA 1
RNA 2: B2 RNA 2 with A37G, A38G, A40G, U44A
B5: target 1 C2G,G15A (mixed)
RNA 1: B1 RNA 1
RNA 2: B2 RNA 2 with A40G, C50G
B6: target 1 insA 3' of 22,insG 3' of 6 (mixed)
RNA 1: B1 RNA 1
RNA 2: GGGAAUGGAUCCACAUCUACGAAUUCGUACACAUAGAGAGGUUAUCCGGCUCACCGAGAUCGGAAGAGCACACGU
B7: target 1 complement block 8-10 (mixed)
RNA 1: B1 RNA 1
RNA 2: B2 RNA 2 with A37G, A40G, U42A, A43U, U44A
B8: target 1 insG 3' of 8,insA 3' of 5 (mixed)
RNA 1: B1 RNA 1
RNA 2: B1 RNA 2 with A42U, G43A, A45G, U46C, C48G, G49A
B9: target 1 insA 3' of 11,insG 3' of 9 (mixed)
RNA 1: B1 RNA 1
RNA 2: B1 RNA 2 with G43U, U44A, A45G
B10: target 1 insC 3' of 15,insG 3' of 7 (mixed)
RNA 1: B1 RNA 1
RNA 2: B1 RNA 2 with A38C, G39A, U41G, A42U, G43U, U44A, A45U, U46C, C47G
B11: target 1 insG 3' of 18,insU 3' of 18 (mixed)
RNA 1: B1 RNA 1
RNA 2: B1 RNA 2 with A36U, G40A, U41G, A42G, G43U
B12: target 1 insA 3' of 15,insU 3' of 15 (mixed)
RNA 1: B1 RNA 1
RNA 2: B1 RNA 2 with G39U, G40A, U41G, A42G, G43U
B13: target 1 C6A,A9C (mixed)
RNA 1: B1 RNA 1
RNA 2: B2 RNA 2 with A37G, A40G, A43C, C46A
B14: target 1 insU 3' of 18,insA 3' of 3 (mixed)
RNA 1: B1 RNA 1
RNA 2: B6 RNA 2 with A31C, C32A, A33U, U34A, A35U, G49C, C50U, U51A
B15: target 1 insG 3' of 22,insG 3' of 22 (mixed)
RNA 1: B1 RNA 1
RNA 2: B1 RNA 2 with C31G, A32G, U33C, G35U, G40A, U41G, A42G, G43U
B16: target 1 insA 3' of 7,insA 3' of 5 (mixed)
RNA 1: B1 RNA 1
RNA 2: B1 RNA 2 with A42U, G43A, A45C, U46A, C48G, G49A

These binders were tested against T1, EsCas13d, nuclease-dead (assay: crRNA (strand 1, pre-loaded); Mg2+; 40 mM Tris-HCl pH 7.5, 150 mM NaCl, 6 mM MgCl2, 1 mM DTT, 0.1% Tween-20, 0.2 mg/ml BSA; 25 C; 10 min per concentration, then washed). Conditions: tags: His6-TwinStrep-SUMO cleaved; N-terminal SNAP kept (SNAP-Surface 488); label: 3' end held by stalled T7 RNA polymerase.
For B1, the Kd was 12.4 ± 0.4 nM. In the case of B2, the Kd is reported as 20 ± 2.3 nM. B3 gave a Kd of 10.3 ± 0.7 nM. Binder B4 has a Kd of 31.1 ± 1.6 nM. Work on B5 yielded a Kd of 14.2 ± 1.5 nM. In the case of B6, the Kd is reported as 17.4 ± 1.6 nM. B7 was tested, and the Kd was 30.9 ± 2.1 nM. In the case of B8, the Kd is reported as 11.5 ± 0.5 nM. Work on B9 yielded a Kd of 23.7 ± 2 nM. B10 was tested, and the Kd was 17.5 ± 1.2 nM. For B11, the Kd was 68 ± 11 nM. For B12, the Kd was 15.7 ± 1.2 nM. B13 was tested, and the Kd was 23 ± 1.5 nM. B14 gave a Kd of 20.7 ± 0.7 nM. For B15, the Kd was 34.6 ± 2.2 nM. For B16, the Kd was 7.21 ± 0.35 nM.
